# Laboratory results as given in IntAct's records for PubMed 31515488.
# B1: Protein BANP (Homo sapiens), Q8N9N5 (parent)
# chain: MMSEHDLADVVQIAVEDLSPDHPVVLENHVVTDEDEPALKRQRLEINCQDPSIKTICLRLDSIEAKLQALEATCKSLEEKLDLVTNKQHSPIQVPMVAGSPLGATQTCNKVRCVVPQTTVILNNDRQNAIVAKMEDPLSNRAPDSLENVISNAVPGRRQNTIVVKVPGQEDSHHEDGESGSEASDSVSSCGQAGSQSIGSNVTLITLNSEEDYPNGTWLGDENNPEMRVRCAIIPSDMLHISTNCRTAEKMALTLLDYLFHREVQAVSNLSGQGKHGKKQLDPLTIYGIRCHLFYKFGITESDWYRIKQSIDSKCRTAWRRKQRGQSLAVKSFSRRTPNSSSYCPSEPMMSTPPPASELPQPQPQPQALHYALANAQQVQIHQIGEDGQVQVGHLHIAQVPQGEQVQITQDSEGNLQIHHVGQDGQLLEATRIPCLLAPSVFKASSGQVLQGAQLIAVASSDPAAAGVDGSPLQGSDIQVQYVQLAPVSDHTAGAQTAEALQPTLQPEMQLEHGAIQIQ
# partner: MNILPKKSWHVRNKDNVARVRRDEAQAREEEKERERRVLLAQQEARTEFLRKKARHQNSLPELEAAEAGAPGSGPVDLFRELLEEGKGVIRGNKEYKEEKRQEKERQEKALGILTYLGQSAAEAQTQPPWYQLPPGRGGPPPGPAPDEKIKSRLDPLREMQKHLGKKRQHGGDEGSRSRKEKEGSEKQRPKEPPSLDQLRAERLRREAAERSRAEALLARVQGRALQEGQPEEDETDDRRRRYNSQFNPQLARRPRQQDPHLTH
# B2: Dual specificity protein phosphatase 21 (Homo sapiens), Q9H596 (parent)
# chain: MTASASSFSSSQGVQQPSIYSFSQITRSLFLSNGVAANDKLLLSSNRITAIVNASVEVVNVFFEGIQYIKVPVTDARDSRLYDFFDPIADLIHTIDMRQGRTLLHCMAGVSRSASLCLAYLMKYHSMSLLDAHTWTKSRRPIIRPNNGFWEQLINYEFKLFNNNTVRMINSPVGNIPDIYEKDLRMMISM
# B3: Protein BANP (Homo sapiens), Q8N9N5-2 (parent)
# chain: MMSEHDLADVVQIAVEDLSPDHPVVLENHVVTDEDEPALKRQRLEINCQDPSIKSFLYSINQTICLRLDSIEAKLQALEATCKSLEEKLDLVTNKQHSPIQVPMVAGSPLGATQTCNKVRCAVPGRRQNTIVVKVPGQEDSHHEDGESGSEASDSVSSCGQAGSQSIGSNVTLITLNSEEDYPNGTWLGDENNPEMRVRCAIIPSDMLHISTNCRTAEKMALTLLDYLFHREVQAVSNLSGQGKHGKKQLDPLTIYGIRCHLFYKFGITESDWYRIKQSIDSKCRTAWRRKQRGQSLAVKSFSRRTPNSSSYCPSEPMMSTPPPASELPQPQPQPQALHYALANAQQVQIHQIGEDGQVQVIPQGHLHIAQVPQGEQVQITQDSEGNLQIHHVGQDGQVLQGAQLIAVASSDPAAAGVDGSPLQGSDIQVQYVQLAPVSDHTAGAQTAEALQPTLQPEMQLEHGAIQIQ
# partner: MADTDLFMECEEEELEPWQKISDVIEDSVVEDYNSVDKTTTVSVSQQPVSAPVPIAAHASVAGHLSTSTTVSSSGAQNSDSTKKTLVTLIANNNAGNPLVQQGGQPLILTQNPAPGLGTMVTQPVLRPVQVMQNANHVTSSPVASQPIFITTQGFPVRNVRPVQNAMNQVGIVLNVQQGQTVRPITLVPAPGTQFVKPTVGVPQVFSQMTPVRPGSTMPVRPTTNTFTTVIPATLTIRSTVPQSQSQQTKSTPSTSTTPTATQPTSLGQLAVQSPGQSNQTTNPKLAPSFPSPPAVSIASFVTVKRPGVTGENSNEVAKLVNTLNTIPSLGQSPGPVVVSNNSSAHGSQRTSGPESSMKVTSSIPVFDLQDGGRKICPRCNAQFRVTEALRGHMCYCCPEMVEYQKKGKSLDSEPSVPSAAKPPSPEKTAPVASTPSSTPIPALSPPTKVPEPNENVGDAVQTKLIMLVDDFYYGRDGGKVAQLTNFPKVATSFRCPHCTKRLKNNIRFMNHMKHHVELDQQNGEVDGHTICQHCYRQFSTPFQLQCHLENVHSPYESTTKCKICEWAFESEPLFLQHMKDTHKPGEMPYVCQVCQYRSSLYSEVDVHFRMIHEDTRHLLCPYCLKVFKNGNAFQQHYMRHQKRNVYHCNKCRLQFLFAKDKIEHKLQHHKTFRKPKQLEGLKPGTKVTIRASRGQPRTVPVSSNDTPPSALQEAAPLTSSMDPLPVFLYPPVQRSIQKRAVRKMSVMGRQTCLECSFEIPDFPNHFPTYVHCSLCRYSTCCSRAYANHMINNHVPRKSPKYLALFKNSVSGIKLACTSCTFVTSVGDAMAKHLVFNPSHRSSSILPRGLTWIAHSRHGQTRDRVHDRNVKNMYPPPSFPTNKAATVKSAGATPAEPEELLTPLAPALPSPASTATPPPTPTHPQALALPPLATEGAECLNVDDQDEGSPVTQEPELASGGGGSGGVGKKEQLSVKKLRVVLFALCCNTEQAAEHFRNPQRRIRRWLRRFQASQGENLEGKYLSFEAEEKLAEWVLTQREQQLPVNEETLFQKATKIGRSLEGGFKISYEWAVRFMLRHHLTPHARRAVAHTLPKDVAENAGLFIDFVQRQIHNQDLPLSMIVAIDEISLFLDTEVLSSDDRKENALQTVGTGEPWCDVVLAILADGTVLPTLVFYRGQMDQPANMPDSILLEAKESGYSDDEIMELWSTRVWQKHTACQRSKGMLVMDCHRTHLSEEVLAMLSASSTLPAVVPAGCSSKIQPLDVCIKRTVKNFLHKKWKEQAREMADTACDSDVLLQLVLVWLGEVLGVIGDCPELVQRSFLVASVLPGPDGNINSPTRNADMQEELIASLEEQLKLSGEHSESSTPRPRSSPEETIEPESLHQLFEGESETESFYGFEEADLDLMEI
# B4: Putative pre-mRNA-splicing factor ATP-dependent RNA helicase DHX32 (Homo sapiens), Q7L7V1 (parent)
# chain: MEEEGLECPNSSSEKRYFPESLDSSDGDEEEVLACEDLELNPFDGLPYSSRYYKLLKEREDLPIWKEKYSFMENLLQNQIVIVSGDAKCGKSAQVPQWCAEYCLSIHYQHGGVICTQVHKQTVVQLALRVADEMDVNIGHEVGYVIPFENCCTNETILRYCTDDMLQREMMSNPFLGSYGVIILDDIHERSIATDVLLGLLKDVLLARPELKLIINSSPHLISKLNSYYGNVPVIEVKNKHPVEVVYLSEAQKDSFESILRLIFEIHHSGEKGDIVVFLACEQDIEKVCETVYQGSNLNPDLGELVVVPLYPKEKCSLFKPLDETEKRCQVYQRRVVLTTSSGEFLIWSNSVRFVIDVGVERRKVYNPRIRANSLVMQPISQSQAEIRKQILGSSSSGKFFCLYTEEFASKDMTPLKPAEMQEANLTSMVLFMKRIDIAGLGHCDFMNRPAPESLMQALEDLDYLAALDNDGNLSEFGIIMSEFPLDPQLSKSILASCEFDCVDEVLTIAAMVTAPNCFSHVPHGAEEAALTCWKTFLHPEGDHFTLISIYKAYQDTTLNSSSEYCVEKWCRDYFLNCSALRMADVIRAELLEIIKRIELPYAEPAFGSKENTLNIKKALLSGYFMQIARDVDGSGNYLMLTHKQVAQLHPLSGYSITKKMPEWVLFHKFSISENNYIRITSEISPELFMQLVPQYYFSNLPPSESKDILQQVVDHLSPVSTMNKEQQMCETCPETEQRCTLQ
# partner: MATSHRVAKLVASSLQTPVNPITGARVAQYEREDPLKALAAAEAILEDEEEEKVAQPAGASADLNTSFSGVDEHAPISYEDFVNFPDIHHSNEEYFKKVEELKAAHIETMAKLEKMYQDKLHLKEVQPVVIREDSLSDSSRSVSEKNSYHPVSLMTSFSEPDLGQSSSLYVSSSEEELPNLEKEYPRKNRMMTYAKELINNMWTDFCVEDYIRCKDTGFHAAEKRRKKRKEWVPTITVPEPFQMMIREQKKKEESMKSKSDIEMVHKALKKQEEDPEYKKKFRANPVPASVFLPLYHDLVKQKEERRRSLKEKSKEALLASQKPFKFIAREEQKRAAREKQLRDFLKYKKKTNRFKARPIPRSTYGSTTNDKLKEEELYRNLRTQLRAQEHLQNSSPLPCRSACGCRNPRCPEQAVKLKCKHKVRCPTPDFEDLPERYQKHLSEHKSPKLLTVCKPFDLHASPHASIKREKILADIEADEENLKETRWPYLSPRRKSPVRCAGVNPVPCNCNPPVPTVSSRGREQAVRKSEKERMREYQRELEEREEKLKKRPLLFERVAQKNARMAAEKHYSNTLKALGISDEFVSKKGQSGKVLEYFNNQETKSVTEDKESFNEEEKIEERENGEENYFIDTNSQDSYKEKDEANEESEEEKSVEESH
# B5: Pre-B-cell leukemia transcription factor 4 (Homo sapiens), Q9BYU1 (parent)
# chain: MAAPPRPAPSPPAPRRLDTSDVLQQIMAITDQSLDEAQARKHALNCHRMKPALFSVLCEIKEKTVVSIRGIQDEDPPDAQLLRLDNMLLAEGVCRPEKRGRGGAVARAGTATPGGCPNDNSIEHSDYRAKLSQIRQIYHSELEKYEQACREFTTHVTNLLQEQSRMRPVSPKEIERMVGAIHGKFSAIQMQLKQSTCEAVMTLRSRLLDARRKRRNFSKQATEVLNEYFYSHLNNPYPSEEAKEELARKGGLTISQVSNWFGNKRIRYKKNMGKFQEEATIYTGKTAVDTTEVGVPGNHASCLSTPSSGSSGPFPLPSAGDAFLTLRTLASLQPPPGGGCLQSQAQGSWQGATPQPATASPAGDPGSINSSTSN
# B6: Keratin, type II cytoskeletal 79 (Homo sapiens), Q5XKE5 (parent)
# chain: MRSSVSRQTYSTKGGFSSNSASGGSGSQARTSFSSVTVSRSSGSGGGAHCGPGTGGFGSRSLYNLGGHKSISVSVAGGALLGRALGGFGFGSRAFMGQGAGRQTFGPACPPGGIQEVTVNQSLLTPLHVEIDPEIQRVRTQEREQIKTLNNKFASFIDKVRFLEQQNKVLETKWALLQEQGQNLGVTRNNLEPLFEAYLGSMRSTLDRLQSERGRLDSELRNVQDLVEDFKNKYEDEINKHTAAENEFVVLKKDVDAAYMGRMDLHGKVGTLTQEIDFLQQLYEMELSQVQTHVSNTNVVLSMDNNRNLDLDSIIAEVKAQYELIAQRSRAEAEAWYQTKYEELQVTAGKHGDNLRDTKNEIAELTRTIQRLQGEADAAKKQCQQLQTAIAEAEQRGELALKDAQKKLGDLDVALHQAKEDLTRLLRDYQELMNVKLALDVEIATYRKLLESEESRMSGECPSAVSISVTGNSTTVCGGGAASFGGGISLGGSGGATKGGFSTNVGYSTVKGGPVSAGTSILRKTTTVKTSSQRY
# partner: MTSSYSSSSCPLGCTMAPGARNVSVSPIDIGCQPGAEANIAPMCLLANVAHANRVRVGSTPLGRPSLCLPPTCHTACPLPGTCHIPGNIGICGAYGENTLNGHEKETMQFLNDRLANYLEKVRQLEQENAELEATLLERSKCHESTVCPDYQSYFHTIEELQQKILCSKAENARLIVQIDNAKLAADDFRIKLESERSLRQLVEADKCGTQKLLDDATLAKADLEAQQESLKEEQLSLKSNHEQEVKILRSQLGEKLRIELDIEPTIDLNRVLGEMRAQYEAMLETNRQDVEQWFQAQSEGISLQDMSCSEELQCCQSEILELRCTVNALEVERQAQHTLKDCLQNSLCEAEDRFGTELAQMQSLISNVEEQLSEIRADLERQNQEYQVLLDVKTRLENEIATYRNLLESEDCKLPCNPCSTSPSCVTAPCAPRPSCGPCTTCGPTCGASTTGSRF
# Variants of: B1
# Settings: with leng1_human LENG1, Q96BZ8
row,Variant,effect of a mutation on the interaction
1,P348S,with no effect

# Variants of: B2
# Settings: with gors2_human GORASP2, Q9H8Y8
row,Variant,effect of a mutation on the interaction
1,S18F,with no effect

# Variants of: B3
# Settings: with pogz_human POGZ
row,Variant,effect of a mutation on the interaction
1,A162V,with no effect

# Variants of: B4
# Settings: with FAM161A
row,Variant,effect of a mutation on the interaction
1,D301A,with no effect

# Variants of: B5
# Settings: with tfp11_human TFIP11, Q9UBB9
# Chain of tfp11_human TFIP11, Q9UBB9 (Q9UBB9 whole entry): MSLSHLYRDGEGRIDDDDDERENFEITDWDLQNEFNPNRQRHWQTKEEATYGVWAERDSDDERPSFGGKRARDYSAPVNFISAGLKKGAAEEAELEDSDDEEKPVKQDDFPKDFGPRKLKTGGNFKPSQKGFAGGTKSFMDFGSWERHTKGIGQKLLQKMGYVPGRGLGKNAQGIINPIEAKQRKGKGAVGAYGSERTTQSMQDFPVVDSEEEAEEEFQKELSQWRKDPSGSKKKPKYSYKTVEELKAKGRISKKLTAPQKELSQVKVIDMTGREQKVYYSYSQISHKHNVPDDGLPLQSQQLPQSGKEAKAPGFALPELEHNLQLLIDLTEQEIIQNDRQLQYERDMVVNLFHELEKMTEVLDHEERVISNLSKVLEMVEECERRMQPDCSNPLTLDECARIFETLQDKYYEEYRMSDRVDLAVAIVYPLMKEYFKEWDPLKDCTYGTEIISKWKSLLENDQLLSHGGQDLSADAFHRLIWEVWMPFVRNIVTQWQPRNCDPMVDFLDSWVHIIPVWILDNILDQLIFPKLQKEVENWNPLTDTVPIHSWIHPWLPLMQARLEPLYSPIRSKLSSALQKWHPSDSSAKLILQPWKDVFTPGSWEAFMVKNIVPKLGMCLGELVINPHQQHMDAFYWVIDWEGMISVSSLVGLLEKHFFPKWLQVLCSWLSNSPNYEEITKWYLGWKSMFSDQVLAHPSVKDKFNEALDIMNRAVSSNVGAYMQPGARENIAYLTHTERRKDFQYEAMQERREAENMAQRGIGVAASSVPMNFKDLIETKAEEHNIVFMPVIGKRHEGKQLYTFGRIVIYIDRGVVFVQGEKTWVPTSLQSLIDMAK
row,Variant,effect of a mutation on the interaction
1,T154M,with no effect
2,T283M,with no effect
3,R327Q,with no effect

# Variants of: B6
# Settings: with krt38_human KRT38, O76015
row,Variant,effect of a mutation on the interaction
1,R30C,with no effect
2,G86E,with no effect
3,R161Q,with no effect
4,D217Y,with no effect
